From patent US20250326862A1, “Antibody or Fragment Thereof Binding Specifically to Mertk, and Anti-Tumor Agent” (Chiome Bioscience Inc., priority 2021, published 2025)
Substitutions are numbered along the chain they refer to. “Also recorded” adds a separate entry of the source. Each block holds one molecule with its values, some of them ahead of it.

Tests used:
[1] = target: T1, binding of MerTK with Gas6 (Homo sapiens, UniProt Q12866); assay: Test 6: ligand binding inhibition ELISA, MerTK with Gas6; conditions: human MerTK 5 μg/ml immobilized; biotinylated Gas6 10 nM; FIGS. 13 and 15
T1 construct: purchased R&D Systems
T1 sequence (Q12866 26-499 limits assumed): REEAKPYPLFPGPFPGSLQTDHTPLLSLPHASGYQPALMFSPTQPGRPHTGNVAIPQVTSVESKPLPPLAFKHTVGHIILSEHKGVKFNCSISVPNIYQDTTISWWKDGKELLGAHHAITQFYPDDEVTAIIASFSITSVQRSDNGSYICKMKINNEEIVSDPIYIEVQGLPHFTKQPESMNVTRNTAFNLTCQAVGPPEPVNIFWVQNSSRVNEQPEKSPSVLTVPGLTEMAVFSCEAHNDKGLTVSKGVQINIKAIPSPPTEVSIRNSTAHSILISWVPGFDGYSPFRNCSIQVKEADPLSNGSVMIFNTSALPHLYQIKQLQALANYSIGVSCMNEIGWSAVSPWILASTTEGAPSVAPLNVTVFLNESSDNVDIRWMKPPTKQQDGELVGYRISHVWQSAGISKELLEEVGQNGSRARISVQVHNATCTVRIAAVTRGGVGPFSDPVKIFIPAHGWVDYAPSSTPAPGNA
Procedure: (§1) “20A77” and “24A1” were evaluated for the ability to inhibit binding of MerTK with various ligands. The MerTK ligands used were human Gas6 (R&D Systems) and human TULP1 (abcam plc.) which were respectively biotinylated using “Biotin Labeling Kit-NH” (Dojindo Laboratories Co., Ltd.). […] TULP1 is a ligand correlated with ocular toxicity, and an antibody having an activity to inhibit binding of MerTK with TULP1 may have ocular toxicity. Thus, an antibody having high inhibitory activity of binding to Gas6 and low inhibitory activity of binding to TULP1 may be an efficacious anti-tumor agent having low ocular toxicity.
(§2) The ligand binding inhibition test was carried out as indicated below. First, human MerTK (R&D Systems) was added to an ELISA plate (Nunc) at a concentration of 5 μg/ml and immobilized overnight at room temperature. After removing the immobilization solution, 1% BSA/PBS was added for blocking reaction and left to stand at room temperature for 1 hour. After the blocking, the plate was washed with 0.05% Tween 20/PBS and an antibody solution was added for primary reaction at room temperature for 1 hour. […] After washing, a chromogenic substrate solution of TMB (Dako) was added for chromogenic reaction for 20 minutes, 1 N sulfuric acid was added to terminate the reaction and the absorbance was measured at 450 nm.

human MerTK = target: T2, human MerTK (Homo sapiens, UniProt Q12866); assay: MerTK phosphorylation inhibition test in hMerTK-EL4 cells stimulated with human Gas6; type: cell-based; set-up: expressed in transfected cells; host or cells: mouse lymphoma cell line EL4 (hMerTK-EL4); conditions: hMerTK-EL4, antibody 1 hour, then 200 nM human Gas6 for 10 minutes; phospho-Mer ELISA; FIG. 1
T2 sequence (Q12866 21-999): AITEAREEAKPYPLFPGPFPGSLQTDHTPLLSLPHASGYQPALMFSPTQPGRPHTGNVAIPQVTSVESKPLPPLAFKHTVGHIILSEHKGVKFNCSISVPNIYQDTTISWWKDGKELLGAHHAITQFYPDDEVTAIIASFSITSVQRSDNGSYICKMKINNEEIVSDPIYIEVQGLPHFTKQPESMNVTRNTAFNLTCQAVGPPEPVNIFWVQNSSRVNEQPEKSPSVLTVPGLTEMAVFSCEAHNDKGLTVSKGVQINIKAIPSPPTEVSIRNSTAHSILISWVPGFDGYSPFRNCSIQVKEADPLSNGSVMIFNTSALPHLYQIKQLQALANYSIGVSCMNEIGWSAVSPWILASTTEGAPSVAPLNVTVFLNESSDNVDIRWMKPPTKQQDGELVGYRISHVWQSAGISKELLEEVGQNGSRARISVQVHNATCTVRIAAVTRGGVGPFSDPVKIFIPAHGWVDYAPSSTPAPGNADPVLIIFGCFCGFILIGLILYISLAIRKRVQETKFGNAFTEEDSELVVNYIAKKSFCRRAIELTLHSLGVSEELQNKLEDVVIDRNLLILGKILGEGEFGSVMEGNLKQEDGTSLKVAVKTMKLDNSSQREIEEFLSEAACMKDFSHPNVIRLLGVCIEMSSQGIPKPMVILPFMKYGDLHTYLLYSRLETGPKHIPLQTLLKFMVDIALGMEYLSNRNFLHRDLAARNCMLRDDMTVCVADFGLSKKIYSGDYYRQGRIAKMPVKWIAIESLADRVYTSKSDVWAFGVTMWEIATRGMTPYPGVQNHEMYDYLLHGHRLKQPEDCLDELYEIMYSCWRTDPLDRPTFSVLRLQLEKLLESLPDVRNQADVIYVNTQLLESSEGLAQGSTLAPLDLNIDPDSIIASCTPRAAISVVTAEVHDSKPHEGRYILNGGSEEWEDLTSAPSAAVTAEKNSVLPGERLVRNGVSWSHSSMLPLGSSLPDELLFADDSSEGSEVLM
Procedure: On the basis of the procedures indicated below, the clones were evaluated for MerTK phosphorylation inhibitory activity. Higher activity means higher binding ability to MerTK.
The cells (hMerTK-EL4) stably expressing human MerTK were cultured in a “DMEM high glucose medium” (Thermo Fisher Scientific Inc.) containing 10% FBS. After the cultivation, the cells were washed in PBS, suspended in a serum-free medium, plated in a 96-well plate at 1×10^6 cells/well and incubated at 37° C. for 3 hours. After the incubation, the respective clones were added, the hMerTK-EL4 was allowed to react for 1 hour, stimulated with 200 nM human Gas6 (R&D Systems) for 10 minutes and centrifuged and collected. The collected hMerTK-EL4 was lysed in a cell lysis solution, and the level of the phosphorylated MerTK protein in the lysate was determined using “Human Phospho-Mer DuoSet IC ELISA” (R&D Systems). The cell lysis solution used contained 1% “IGEPAL CA-630” (SIGMA) and 1×concentration of “Halt Protease and Phosphatase Inhibitor Single-Use Inhibitor Cocktail” (Thermo Fisher Scientific Inc.) added to MilliQ water.

[2] = target: T3, binding of MerTK with TULP1 (Homo sapiens, UniProt Q12866); assay: Test 6: ligand binding inhibition ELISA, MerTK with TULP1; conditions: human MerTK 5 μg/ml immobilized; biotinylated TULP1 40 nM; FIGS. 14 and 16
T3 construct: purchased R&D Systems
T3 sequence (Q12866 26-499 limits assumed): T1 sequence (Q12866 26-499 limits assumed)
Procedure: as §1, §2

[3] = target: T4, human MerTK on cells (EL4 cells stably expressing human MerTK); human melanoma cell line G361 intrinsically … (human, UniProt Q12866 21-999); assay: inferred from inhibition of Gas6-induced MerTK phosphorylation on hMerTK-EL4 cells
T4 construct: whole, on cells; also called hMerTK-EL4
T4 sequence (looked up): T2 sequence (Q12866 21-999)
Procedure: The cells (hMerTK-EL4) stably expressing human MerTK were cultured in a “DMEM high glucose medium” (Thermo Fisher Scientific Inc.) containing 10% FBS. After the cultivation, the cells were washed in PBS, suspended in a serum-free medium, plated in a 96-well plate at 1×10⁶ cells/well and incubated at 37° C. for 3 hours. After the incubation, the respective clones were added, the hMerTK-EL4 was allowed to react for 1 hour, stimulated with 200 nM human Gas6 (R&D Systems) for 10 minutes and centrifuged and collected. The collected hMerTK-EL4 was lysed in a cell lysis solution, and the level of the phosphorylated MerTK protein in the lysate was determined using “Human Phospho-Mer DuoSet IC ELISA” (R&D Systems). The cell lysis solution used contained 1% “IGEPAL CA-630” (SIGMA) and 1×concentration of “Halt Protease and Phosphatase Inhibitor Single-Use Inhibitor Cocktail” (Thermo Fisher Scientific Inc.) added to MilliQ water.
Among these 14 clones, “20A77” and “24A1” were selected as clones showing particularly high inhibitory activity and subjected to the following tests.

[4] = target: T5, Recombinant Mouse Mer Fc Chimera Protein (R&D systems) (mouse, UniProt Q60805 23-496, limits assumed); assay: ELISA, antigen immobilised at 5 ug/ml, HRP-labelled secondary antibody
T5 construct: Bought reagent; also called mouse MerTK antigen; human Fc fusion protein of mouse MerTK; not shown: human Fc
T5 sequence (looked up): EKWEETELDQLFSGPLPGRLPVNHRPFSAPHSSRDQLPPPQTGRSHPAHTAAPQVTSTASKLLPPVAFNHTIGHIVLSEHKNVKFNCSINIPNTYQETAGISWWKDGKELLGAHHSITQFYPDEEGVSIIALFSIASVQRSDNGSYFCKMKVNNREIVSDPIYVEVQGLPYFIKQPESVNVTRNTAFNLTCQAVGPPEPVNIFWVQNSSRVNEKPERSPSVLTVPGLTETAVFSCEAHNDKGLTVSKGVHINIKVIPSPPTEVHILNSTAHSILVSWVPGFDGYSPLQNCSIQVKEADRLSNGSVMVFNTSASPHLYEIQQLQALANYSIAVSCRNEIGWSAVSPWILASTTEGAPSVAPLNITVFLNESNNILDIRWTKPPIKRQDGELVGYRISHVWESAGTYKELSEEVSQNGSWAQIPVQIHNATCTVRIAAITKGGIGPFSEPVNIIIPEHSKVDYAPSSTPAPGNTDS
Procedure: (§3) The ELISA was performed according to the procedures indicated below. First, the respective antigens were added to an ELISA plate (Nunc) at a concentration of 5 μg/ml and immobilized overnight at room temperature. After removing the immobilization solution, 1% BSA/PBS was added for blocking reaction and left to stand at room temperature for 1 hour. After the blocking, the plate was washed with 0.05% Tween 20/PBS and an antibody solution was added for primary reaction at room temperature for 1 hour. After washing, an HRP-labelled antibody (GE Healthcare) was added for secondary reaction for 1 hour. After washing, a chromogenic substrate solution of TMB (Dako) was added for chromogenic reaction for 10 minutes, 1 N sulfuric acid was added to terminate the reaction and the absorbance was measured at 450 nm.

[5] = target: T6, Recombinant Human Mer Fc Chimera Protein (R&D systems) (human, UniProt Q12866 26-499, limits assumed); assay: as above
T6 construct: Bought reagent; also called human MerTK antigen; human Fc fusion protein of human MerTK; not shown: human Fc
T6 sequence (looked up): T1 sequence (Q12866 26-499 limits assumed)
Procedure: as §3

rat MerTKECD-hFc = target: T7, rat MerTKECD-hFc (rat, UniProt P57097 19-497); assay: as above
T7 construct: extracellular domain; Prepared in the same manner as hMerTKECD-mFc and mMerTKECD-mFc; not shown: human Fc
T7 sequence (looked up): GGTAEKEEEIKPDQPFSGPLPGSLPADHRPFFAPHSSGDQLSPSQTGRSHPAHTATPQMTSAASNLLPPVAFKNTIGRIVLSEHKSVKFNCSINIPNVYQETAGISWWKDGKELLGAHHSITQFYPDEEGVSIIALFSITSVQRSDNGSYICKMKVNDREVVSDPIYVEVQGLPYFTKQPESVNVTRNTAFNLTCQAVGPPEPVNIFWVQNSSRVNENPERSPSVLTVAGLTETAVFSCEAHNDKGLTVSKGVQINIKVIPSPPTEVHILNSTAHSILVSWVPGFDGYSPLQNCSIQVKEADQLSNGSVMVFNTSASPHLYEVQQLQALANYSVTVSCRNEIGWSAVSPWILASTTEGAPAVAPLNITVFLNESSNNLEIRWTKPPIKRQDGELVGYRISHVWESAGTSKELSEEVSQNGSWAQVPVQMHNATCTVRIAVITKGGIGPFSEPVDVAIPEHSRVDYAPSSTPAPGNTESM
Procedure: as §3

binding result [3]: binds
B1: 20A77 (antibody, V domains shown)
VH: QVQLQQPGTELVKPGASVKLSCRASGNTFTSYWMHWVKQRPGQGLEWIGNINPSNGGTNYNEKFKSKATLTVDKSSSTAYMQLSSLTSEDSAVYYCARLNYYGFDGFAFWGQGTLVTVSA
VL: DIKMTQSPSSMYASLGERVTITCKASQDINSYLSWFQQKPGKSPKTLIYRANRLVDGVPSRFSGSGSGQDYSLTISSLEYEDMGIYYCLQYDEFPFTFGSGTKLEIK
notes: Mouse monoclonal antibody from a hybridoma clone (MerTK knockout mice); In Test 2 (1) the hybridoma clone was added
inhibition of binding of Gas6 with MerTK [1]: inhibited binding of Gas6 with MerTK; also recorded: strongly inhibited binding of Gas6 with MerTK
MerTK phosphorylation inhibitory activity (human MerTK): inhibited binding of Gas6 with MerTK and MerTK phosphorylation in a concentration dependent manner
inhibition of binding of TULP1 with MerTK [2]: did not inhibit binding of TULP1 with MerTK

binding result [4]: binds
binding result [5]: binds
binding result (rat MerTKECD-hFc): binds
B2: m20A77_mIgG1 (antibody, V domains shown)
VH: B1 VH with N55S
VL: B1 VL with D56S
notes: CDR-modified variant of 20A77, made recombinantly with mouse IgG1 heavy chain and kappa light chain constant regions
